T1: Biotin-FcγRIIB (human FcγRIIB, Sino Biological) (human, UniProt P31994 43-217, limits assumed, biotin-labeled)
T1 construct: Used at 1 µg/ml with Streptavidin-APC for flow cytometry and sorting; also called CD32b
T1 sequence (looked up): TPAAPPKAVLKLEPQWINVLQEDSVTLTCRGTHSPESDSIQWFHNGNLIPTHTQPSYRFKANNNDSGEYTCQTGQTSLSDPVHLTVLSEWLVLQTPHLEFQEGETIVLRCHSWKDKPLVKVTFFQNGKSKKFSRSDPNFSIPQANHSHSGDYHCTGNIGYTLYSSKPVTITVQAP

B1: human IgG2 anti-mouse CD40 surface displayed antibody, P271G/P329S (antibody, name in EU numbering)
light chain (with the P2A rest): DTVLTQSPALAVSPGERVTISCRASDSVSTLMHWYQQKPGQQPKLLIYLASHLESGVPARFSGSGSGTDFTLTIDPVEADDTATYYCQQSWNDPWTFGGGTKLELKRTVAAPSVFIFPPSDEQLKSGTASVVCLLNNFYPREAKVQWKVDNALQSGNSQESVTEQDSKDSTYSLSSTLTLSKADYEKHKVYACEVTHQGLSSPVTKSFNRGECGSGATNFSLLKQAGDVEENPG
heavy chain: EVQLVESDGGLVQPGRSLKLPCAASGFTFSDYYMAWVRQAPTKGLEWVASISYDGSSTYYRDSVKGRFTISRDNAKSTLYLQMDSLRSEDTATYYCGRHSSYFDYWGQGVMVTVSSASTKGPSVFPLAPCSRSTSESTAALGCLVKDYFPEPVTVSWNSGALTSGVHTFPAVLQSSGLYSLSSVVTVPSSNFGTQTYTCNVDHKPSNTKVDKTVERKCCVECPPCPAPPVAGPSVFLFPPKPKDTLMISRTPEVTCVVVDVSHEDGEVQFNWYVDGVEVHNAKTKPREEQFNSTFRVVSVLTVVHQDWLNGKEYKCKVSNKGLSAPIEKTISKTKGQPREPQVYTLPPSREEMTKNQVSLTCLVKGFYPSDIAVEWESNGQPENNYKTTPPMLDSDGSFFLYSKLTVDKSRWQQGNVFSCSVMHEALHNHYTQKSLSLSPGKLEPPPSTVSNMATVAVLVVLGAAIVTGAVVAFVMKMRRRNTGGKGGDYALAPGSQTSDLSLPDCKVMVHDPHSLA
notes: m1 with these Fc mutations (Eu numbering); copies: 2 + 2
B2: human IgG2 anti-mouse CD40 surface displayed antibody, P271G/S298K (antibody, name in EU numbering)
light chain (with the P2A rest): DTVLTQSPALAVSPGERVTISCRASDSVSTLMHWYQQKPGQQPKLLIYLASHLESGVPARFSGSGSGTDFTLTIDPVEADDTATYYCQQSWNDPWTFGGGTKLELKRTVAAPSVFIFPPSDEQLKSGTASVVCLLNNFYPREAKVQWKVDNALQSGNSQESVTEQDSKDSTYSLSSTLTLSKADYEKHKVYACEVTHQGLSSPVTKSFNRGECGSGATNFSLLKQAGDVEENPG
heavy chain: EVQLVESDGGLVQPGRSLKLPCAASGFTFSDYYMAWVRQAPTKGLEWVASISYDGSSTYYRDSVKGRFTISRDNAKSTLYLQMDSLRSEDTATYYCGRHSSYFDYWGQGVMVTVSSASTKGPSVFPLAPCSRSTSESTAALGCLVKDYFPEPVTVSWNSGALTSGVHTFPAVLQSSGLYSLSSVVTVPSSNFGTQTYTCNVDHKPSNTKVDKTVERKCCVECPPCPAPPVAGPSVFLFPPKPKDTLMISRTPEVTCVVVDVSHEDGEVQFNWYVDGVEVHNAKTKPREEQFNKTFRVVSVLTVVHQDWLNGKEYKCKVSNKGLPAPIEKTISKTKGQPREPQVYTLPPSREEMTKNQVSLTCLVKGFYPSDIAVEWESNGQPENNYKTTPPMLDSDGSFFLYSKLTVDKSRWQQGNVFSCSVMHEALHNHYTQKSLSLSPGKLEPPPSTVSNMATVAVLVVLGAAIVTGAVVAFVMKMRRRNTGGKGGDYALAPGSQTSDLSLPDCKVMVHDPHSLA
notes: as for B1
B3: human IgG2 anti-mouse CD40 surface displayed antibody, P271G/P331C (antibody, name in EU numbering)
light chain (with the P2A rest): DTVLTQSPALAVSPGERVTISCRASDSVSTLMHWYQQKPGQQPKLLIYLASHLESGVPARFSGSGSGTDFTLTIDPVEADDTATYYCQQSWNDPWTFGGGTKLELKRTVAAPSVFIFPPSDEQLKSGTASVVCLLNNFYPREAKVQWKVDNALQSGNSQESVTEQDSKDSTYSLSSTLTLSKADYEKHKVYACEVTHQGLSSPVTKSFNRGECGSGATNFSLLKQAGDVEENPG
heavy chain: EVQLVESDGGLVQPGRSLKLPCAASGFTFSDYYMAWVRQAPTKGLEWVASISYDGSSTYYRDSVKGRFTISRDNAKSTLYLQMDSLRSEDTATYYCGRHSSYFDYWGQGVMVTVSSASTKGPSVFPLAPCSRSTSESTAALGCLVKDYFPEPVTVSWNSGALTSGVHTFPAVLQSSGLYSLSSVVTVPSSNFGTQTYTCNVDHKPSNTKVDKTVERKCCVECPPCPAPPVAGPSVFLFPPKPKDTLMISRTPEVTCVVVDVSHEDGEVQFNWYVDGVEVHNAKTKPREEQFNSTFRVVSVLTVVHQDWLNGKEYKCKVSNKGLPACIEKTISKTKGQPREPQVYTLPPSREEMTKNQVSLTCLVKGFYPSDIAVEWESNGQPENNYKTTPPMLDSDGSFFLYSKLTVDKSRWQQGNVFSCSVMHEALHNHYTQKSLSLSPGKLEPPPSTVSNMATVAVLVVLGAAIVTGAVVAFVMKMRRRNTGGKGGDYALAPGSQTSDLSLPDCKVMVHDPHSLA
notes: as for B1
B4: human IgG2 anti-mouse CD40 surface displayed antibody, P271G/S298E (antibody, name in EU numbering)
light chain (with the P2A rest): DTVLTQSPALAVSPGERVTISCRASDSVSTLMHWYQQKPGQQPKLLIYLASHLESGVPARFSGSGSGTDFTLTIDPVEADDTATYYCQQSWNDPWTFGGGTKLELKRTVAAPSVFIFPPSDEQLKSGTASVVCLLNNFYPREAKVQWKVDNALQSGNSQESVTEQDSKDSTYSLSSTLTLSKADYEKHKVYACEVTHQGLSSPVTKSFNRGECGSGATNFSLLKQAGDVEENPG
heavy chain: EVQLVESDGGLVQPGRSLKLPCAASGFTFSDYYMAWVRQAPTKGLEWVASISYDGSSTYYRDSVKGRFTISRDNAKSTLYLQMDSLRSEDTATYYCGRHSSYFDYWGQGVMVTVSSASTKGPSVFPLAPCSRSTSESTAALGCLVKDYFPEPVTVSWNSGALTSGVHTFPAVLQSSGLYSLSSVVTVPSSNFGTQTYTCNVDHKPSNTKVDKTVERKCCVECPPCPAPPVAGPSVFLFPPKPKDTLMISRTPEVTCVVVDVSHEDGEVQFNWYVDGVEVHNAKTKPREEQFNETFRVVSVLTVVHQDWLNGKEYKCKVSNKGLPAPIEKTISKTKGQPREPQVYTLPPSREEMTKNQVSLTCLVKGFYPSDIAVEWESNGQPENNYKTTPPMLDSDGSFFLYSKLTVDKSRWQQGNVFSCSVMHEALHNHYTQKSLSLSPGKLEPPPSTVSNMATVAVLVVLGAAIVTGAVVAFVMKMRRRNTGGKGGDYALAPGSQTSDLSLPDCKVMVHDPHSLA
notes: as for B1
B5: human IgG2 anti-mouse CD40 surface displayed antibody, P271G/P331T (antibody, name in EU numbering)
light chain (with the P2A rest): DTVLTQSPALAVSPGERVTISCRASDSVSTLMHWYQQKPGQQPKLLIYLASHLESGVPARFSGSGSGTDFTLTIDPVEADDTATYYCQQSWNDPWTFGGGTKLELKRTVAAPSVFIFPPSDEQLKSGTASVVCLLNNFYPREAKVQWKVDNALQSGNSQESVTEQDSKDSTYSLSSTLTLSKADYEKHKVYACEVTHQGLSSPVTKSFNRGECGSGATNFSLLKQAGDVEENPG
heavy chain: EVQLVESDGGLVQPGRSLKLPCAASGFTFSDYYMAWVRQAPTKGLEWVASISYDGSSTYYRDSVKGRFTISRDNAKSTLYLQMDSLRSEDTATYYCGRHSSYFDYWGQGVMVTVSSASTKGPSVFPLAPCSRSTSESTAALGCLVKDYFPEPVTVSWNSGALTSGVHTFPAVLQSSGLYSLSSVVTVPSSNFGTQTYTCNVDHKPSNTKVDKTVERKCCVECPPCPAPPVAGPSVFLFPPKPKDTLMISRTPEVTCVVVDVSHEDGEVQFNWYVDGVEVHNAKTKPREEQFNSTFRVVSVLTVVHQDWLNGKEYKCKVSNKGLPATIEKTISKTKGQPREPQVYTLPPSREEMTKNQVSLTCLVKGFYPSDIAVEWESNGQPENNYKTTPPMLDSDGSFFLYSKLTVDKSRWQQGNVFSCSVMHEALHNHYTQKSLSLSPGKLEPPPSTVSNMATVAVLVVLGAAIVTGAVVAFVMKMRRRNTGGKGGDYALAPGSQTSDLSLPDCKVMVHDPHSLA
notes: as for B1
B6: human IgG2 anti-mouse CD40 surface displayed antibody, P271G/S298G (antibody, name in EU numbering)
light chain (with the P2A rest): DTVLTQSPALAVSPGERVTISCRASDSVSTLMHWYQQKPGQQPKLLIYLASHLESGVPARFSGSGSGTDFTLTIDPVEADDTATYYCQQSWNDPWTFGGGTKLELKRTVAAPSVFIFPPSDEQLKSGTASVVCLLNNFYPREAKVQWKVDNALQSGNSQESVTEQDSKDSTYSLSSTLTLSKADYEKHKVYACEVTHQGLSSPVTKSFNRGECGSGATNFSLLKQAGDVEENPG
heavy chain: EVQLVESDGGLVQPGRSLKLPCAASGFTFSDYYMAWVRQAPTKGLEWVASISYDGSSTYYRDSVKGRFTISRDNAKSTLYLQMDSLRSEDTATYYCGRHSSYFDYWGQGVMVTVSSASTKGPSVFPLAPCSRSTSESTAALGCLVKDYFPEPVTVSWNSGALTSGVHTFPAVLQSSGLYSLSSVVTVPSSNFGTQTYTCNVDHKPSNTKVDKTVERKCCVECPPCPAPPVAGPSVFLFPPKPKDTLMISRTPEVTCVVVDVSHEDGEVQFNWYVDGVEVHNAKTKPREEQFNGTFRVVSVLTVVHQDWLNGKEYKCKVSNKGLPAPIEKTISKTKGQPREPQVYTLPPSREEMTKNQVSLTCLVKGFYPSDIAVEWESNGQPENNYKTTPPMLDSDGSFFLYSKLTVDKSRWQQGNVFSCSVMHEALHNHYTQKSLSLSPGKLEPPPSTVSNMATVAVLVVLGAAIVTGAVVAFVMKMRRRNTGGKGGDYALAPGSQTSDLSLPDCKVMVHDPHSLA
notes: as for B1
B7: human IgG2 anti-mouse CD40 surface displayed antibody, P271G/S298D (antibody, name in EU numbering)
light chain (with the P2A rest): DTVLTQSPALAVSPGERVTISCRASDSVSTLMHWYQQKPGQQPKLLIYLASHLESGVPARFSGSGSGTDFTLTIDPVEADDTATYYCQQSWNDPWTFGGGTKLELKRTVAAPSVFIFPPSDEQLKSGTASVVCLLNNFYPREAKVQWKVDNALQSGNSQESVTEQDSKDSTYSLSSTLTLSKADYEKHKVYACEVTHQGLSSPVTKSFNRGECGSGATNFSLLKQAGDVEENPG
heavy chain: EVQLVESDGGLVQPGRSLKLPCAASGFTFSDYYMAWVRQAPTKGLEWVASISYDGSSTYYRDSVKGRFTISRDNAKSTLYLQMDSLRSEDTATYYCGRHSSYFDYWGQGVMVTVSSASTKGPSVFPLAPCSRSTSESTAALGCLVKDYFPEPVTVSWNSGALTSGVHTFPAVLQSSGLYSLSSVVTVPSSNFGTQTYTCNVDHKPSNTKVDKTVERKCCVECPPCPAPPVAGPSVFLFPPKPKDTLMISRTPEVTCVVVDVSHEDGEVQFNWYVDGVEVHNAKTKPREEQFNDTFRVVSVLTVVHQDWLNGKEYKCKVSNKGLPAPIEKTISKTKGQPREPQVYTLPPSREEMTKNQVSLTCLVKGFYPSDIAVEWESNGQPENNYKTTPPMLDSDGSFFLYSKLTVDKSRWQQGNVFSCSVMHEALHNHYTQKSLSLSPGKLEPPPSTVSNMATVAVLVVLGAAIVTGAVVAFVMKMRRRNTGGKGGDYALAPGSQTSDLSLPDCKVMVHDPHSLA
notes: as for B1

target: T1, Biotin-FcγRIIB (human FcγRIIB, Sino …); test: NGS after FACS sort of 3T3-displayed LibraryMix for biotin-FcγRIIB binding

| Binder | Enrichment factor (percentage after sorting/percentage before sorting) | Increased factor (enrichment factor/wild-type enrichment factor) |
| --- | --- | --- |
| B1 | 46.2 | 61.8 |
| B2 | 10.2 | 13.6 |
| B3 | 140 | 187 |
| B4 | 298 | 398 |
| B5 | 32.3 | 43.2 |
| B6 | 9.73 | 13 |
| B7 | 6.78 | 9.06 |

From US20230220042A1 (SHANGHAI JIAO TONG UNIVERSITY SCHOOL OF MEDICINE, published 2023)
